T1: MPDZ_12, O75970
T1 sequence (O75970 1857-1958, limits assumed, looked up): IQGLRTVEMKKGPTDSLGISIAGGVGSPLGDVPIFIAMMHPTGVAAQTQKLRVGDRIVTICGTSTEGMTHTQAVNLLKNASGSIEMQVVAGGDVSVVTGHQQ

T2: LIN7A, O14910
T2 sequence (O14910 103-200, limits assumed, looked up): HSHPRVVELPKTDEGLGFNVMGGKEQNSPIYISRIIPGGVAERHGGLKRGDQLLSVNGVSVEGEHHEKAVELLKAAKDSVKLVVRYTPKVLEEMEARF

T3: LNX2_3, Q8N448
T3 sequence (Q8N448 463-564, limits assumed, looked up): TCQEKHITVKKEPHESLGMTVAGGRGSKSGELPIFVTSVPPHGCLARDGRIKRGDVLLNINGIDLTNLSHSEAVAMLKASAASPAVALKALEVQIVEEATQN

T4: NHERF3_4, Q5T2W1
T4 sequence (Q5T2W1 373-468, limits assumed, looked up): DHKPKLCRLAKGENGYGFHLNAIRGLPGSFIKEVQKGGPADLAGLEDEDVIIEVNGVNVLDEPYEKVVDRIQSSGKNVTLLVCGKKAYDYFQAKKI

T5: SHANK1, Q9Y566
T5 sequence (Q9Y566 658-767, limits assumed, looked up): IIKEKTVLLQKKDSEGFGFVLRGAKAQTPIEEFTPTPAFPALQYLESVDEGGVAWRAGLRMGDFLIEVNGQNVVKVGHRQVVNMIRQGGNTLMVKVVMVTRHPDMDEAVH

T6: PDZD2_2, O15018
T6 sequence (O15018 329-429, limits assumed, looked up): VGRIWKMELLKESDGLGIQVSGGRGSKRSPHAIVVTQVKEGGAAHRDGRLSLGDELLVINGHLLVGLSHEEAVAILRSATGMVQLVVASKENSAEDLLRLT

T7: CARD11, Q9BXL7
T7 sequence (Q9BXL7 662-765, limits assumed, looked up): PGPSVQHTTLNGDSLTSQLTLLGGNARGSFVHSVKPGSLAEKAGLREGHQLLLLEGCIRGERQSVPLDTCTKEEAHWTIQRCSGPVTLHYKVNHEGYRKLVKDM

T8: APBA1_2, Q02410
T8 sequence (Q02410 742-832, limits assumed, looked up): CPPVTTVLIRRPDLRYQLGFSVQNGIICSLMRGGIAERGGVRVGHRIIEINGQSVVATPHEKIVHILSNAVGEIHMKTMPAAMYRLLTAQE

T9: RAPGEF6, Q8TEU7
T9 sequence (Q8TEU7 525-625, limits assumed, looked up): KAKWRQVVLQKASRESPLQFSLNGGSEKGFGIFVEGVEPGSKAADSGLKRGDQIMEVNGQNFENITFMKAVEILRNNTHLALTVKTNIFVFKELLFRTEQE

B1: CLDN19, Q8N6F1 (peptide)
chain: PASAKGPLGV

The binders below were run against T1, MPDZ_12, O75970 (assay: holdup assay). Conditions: plain residues with an end cap or a label only (N-terminal biotin on a linker: ado-ado).
Design: key: below the threshold = too weak to quantify, mostly under pKd 3.1 to 4

pKd | Binder
below the threshold | B1

These binders were tested against SCRIB_1, Q14160 (assay: holdup assay). Conditions: plain residues with an end cap or a label only (N-terminal biotin on a linker: ado-ado).
Design: key: below the threshold = too weak to quantify, mostly under pKd 3.1 to 4

Sequence of SCRIB_1, Q14160 (Q14160 718-814): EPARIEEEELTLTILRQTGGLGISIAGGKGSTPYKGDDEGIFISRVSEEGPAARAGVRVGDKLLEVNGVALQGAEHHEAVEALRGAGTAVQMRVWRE

pKd | Binder
below the threshold | B1

These binders were tested against NHERF2_2, Q15599 (assay: holdup assay). Conditions: plain residues with an end cap or a label only (N-terminal biotin on a linker: ado-ado).
Design: key: below the threshold = too weak to quantify, mostly under pKd 3.1 to 4

Sequence of NHERF2_2, Q15599 (Q15599 142-238): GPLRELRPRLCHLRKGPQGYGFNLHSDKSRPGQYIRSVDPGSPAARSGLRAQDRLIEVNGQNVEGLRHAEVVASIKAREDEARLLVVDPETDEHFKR

pKd | Binder
below the threshold | B1

These binders were tested against LIMK2, P53671 (assay: holdup assay). Conditions: plain residues with an end cap or a label only (N-terminal biotin on a linker: ado-ado).
Design: key: below the threshold = too weak to quantify, mostly under pKd 3.1 to 4

Sequence of LIMK2, P53671 (P53671 143-248): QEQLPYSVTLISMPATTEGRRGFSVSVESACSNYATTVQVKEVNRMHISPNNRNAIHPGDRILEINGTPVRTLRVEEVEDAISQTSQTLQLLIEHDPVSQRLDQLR

pKd | Binder
below the threshold | B1

The binders below were run against NHERF4_1, Q86UT5-2 (assay: holdup assay). Conditions: plain residues with an end cap or a label only (N-terminal biotin on a linker: ado-ado).
Design: key: below the threshold = too weak to quantify, mostly under pKd 3.1 to 4

Sequence of NHERF4_1, Q86UT5-2 (Q86UT5 other isoform, or with tags, fused parts or gaps): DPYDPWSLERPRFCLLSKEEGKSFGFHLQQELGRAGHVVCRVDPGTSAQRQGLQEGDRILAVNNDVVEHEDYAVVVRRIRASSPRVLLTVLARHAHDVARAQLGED

pKd | Binder
3.49 | B1

What follows are binders tested against T2, LIN7A, O14910 (assay: holdup assay). Conditions: plain residues with an end cap or a label only (N-terminal biotin on a linker: ado-ado).
Design: key: below the threshold = too weak to quantify, mostly under pKd 3.1 to 4

pKd | Binder
below the threshold | B1

These binders were tested against PARD3_3, Q8TEW0 (assay: holdup assay). Conditions: plain residues with an end cap or a label only (N-terminal biotin on a linker: ado-ado).
Design: key: below the threshold = too weak to quantify, mostly under pKd 3.1 to 4

Sequence of PARD3_3, Q8TEW0 (Q8TEW0 582-685): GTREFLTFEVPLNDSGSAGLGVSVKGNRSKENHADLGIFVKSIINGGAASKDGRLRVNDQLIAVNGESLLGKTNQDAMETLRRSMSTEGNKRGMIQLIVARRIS

pKd | Binder
below the threshold | B1

The binders below were run against SNX27, Q96L92 (assay: holdup assay). Conditions: plain residues with an end cap or a label only (N-terminal biotin on a linker: ado-ado).
Design: key: below the threshold = too weak to quantify, mostly under pKd 3.1 to 4

pKd | Binder
below the threshold | B1

What follows are binders tested against T3, LNX2_3, Q8N448 (assay: holdup assay). Conditions: plain residues with an end cap or a label only (N-terminal biotin on a linker: ado-ado).
Design: key: below the threshold = too weak to quantify, mostly under pKd 3.1 to 4

pKd | Binder
below the threshold | B1

These binders were tested against DLG4_3, P78352 (assay: holdup assay). Conditions: plain residues with an end cap or a label only (N-terminal biotin on a linker: ado-ado).
Design: key: below the threshold = too weak to quantify, mostly under pKd 3.1 to 4

Sequence of DLG4_3, P78352 (P78352 306-403): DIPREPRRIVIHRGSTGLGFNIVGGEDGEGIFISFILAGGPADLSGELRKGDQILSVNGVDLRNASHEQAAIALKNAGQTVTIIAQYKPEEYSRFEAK

pKd | Binder
below the threshold | B1

These binders were tested against GRIP2_4, Q9C0E4 (assay: holdup assay). Conditions: plain residues with an end cap or a label only (N-terminal biotin on a linker: ado-ado).
Design: key: below the threshold = too weak to quantify, mostly under pKd 3.1 to 4

Sequence of GRIP2_4, Q9C0E4 (Q9C0E4 446-548): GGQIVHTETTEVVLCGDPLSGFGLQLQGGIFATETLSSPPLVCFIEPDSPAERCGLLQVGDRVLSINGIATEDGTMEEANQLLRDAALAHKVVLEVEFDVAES

pKd | Binder
below the threshold | B1

Each binder was assayed against GRASP, Q7Z6J2 (assay: holdup assay). Conditions: plain residues with an end cap or a label only (N-terminal biotin on a linker: ado-ado).
Design: key: below the threshold = too weak to quantify, mostly under pKd 3.1 to 4

Sequence of GRASP, Q7Z6J2 (Q7Z6J2 96-193): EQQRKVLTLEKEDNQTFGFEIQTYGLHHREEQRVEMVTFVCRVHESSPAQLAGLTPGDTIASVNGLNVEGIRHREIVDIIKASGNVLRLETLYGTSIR

pKd | Binder
below the threshold | B1

These binders were tested against MAGI2_2, Q86UL8 (assay: holdup assay). Conditions: plain residues with an end cap or a label only (N-terminal biotin on a linker: ado-ado).
Design: key: below the threshold = too weak to quantify, mostly under pKd 3.1 to 4

Sequence of MAGI2_2, Q86UL8 (Q86UL8 410-522): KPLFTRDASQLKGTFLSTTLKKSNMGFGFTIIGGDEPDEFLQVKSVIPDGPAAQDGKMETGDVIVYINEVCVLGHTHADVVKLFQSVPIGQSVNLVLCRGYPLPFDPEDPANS

pKd | Binder
below the threshold | B1

These binders were tested against Inadl_8, Q8NI35 (assay: holdup assay). Conditions: plain residues with an end cap or a label only (N-terminal biotin on a linker: ado-ado).
Design: key: below the threshold = too weak to quantify, mostly under pKd 3.1 to 4

Sequence of Inadl_8, Q8NI35 (Q8NI35 1425-1530): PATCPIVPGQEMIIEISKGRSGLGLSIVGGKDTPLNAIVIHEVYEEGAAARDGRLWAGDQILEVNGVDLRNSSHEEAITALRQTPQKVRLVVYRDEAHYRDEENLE

pKd | Binder
below the threshold | B1

These binders were tested against T4, NHERF3_4, Q5T2W1 (assay: holdup assay). Conditions: plain residues with an end cap or a label only (N-terminal biotin on a linker: ado-ado).
Design: key: below the threshold = too weak to quantify, mostly under pKd 3.1 to 4

pKd | Binder
below the threshold | B1

The binders below were run against TJP2_1, Q9UDY2 (assay: holdup assay). Conditions: plain residues with an end cap or a label only (N-terminal biotin on a linker: ado-ado).
Design: key: below the threshold = too weak to quantify, mostly under pKd 3.1 to 4

Sequence of TJP2_1, Q9UDY2 (Q9UDY2 24-128): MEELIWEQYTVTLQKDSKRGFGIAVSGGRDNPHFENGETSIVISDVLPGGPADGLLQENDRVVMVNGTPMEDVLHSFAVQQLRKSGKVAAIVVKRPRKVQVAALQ

pKd | Binder
below the threshold | B1

Each binder was assayed against Inadl_9, Q8NI35 (assay: holdup assay). Conditions: plain residues with an end cap or a label only (N-terminal biotin on a linker: ado-ado).
Design: key: below the threshold = too weak to quantify, mostly under pKd 3.1 to 4

Sequence of Inadl_9, Q8NI35 (Q8NI35 1530-1615): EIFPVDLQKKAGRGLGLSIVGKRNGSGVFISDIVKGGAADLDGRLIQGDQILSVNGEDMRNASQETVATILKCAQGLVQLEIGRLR

pKd | Binder
below the threshold | B1

The binders below were run against T5, SHANK1, Q9Y566 (assay: holdup assay). Conditions: plain residues with an end cap or a label only (N-terminal biotin on a linker: ado-ado).
Design: key: below the threshold = too weak to quantify, mostly under pKd 3.1 to 4

pKd | Binder
below the threshold | B1

The binders below were run against HTRA2, O43464 (assay: holdup assay). Conditions: plain residues with an end cap or a label only (N-terminal biotin on a linker: ado-ado).
Design: key: below the threshold = too weak to quantify, mostly under pKd 3.1 to 4

Sequence of HTRA2, O43464 (O43464 355-458): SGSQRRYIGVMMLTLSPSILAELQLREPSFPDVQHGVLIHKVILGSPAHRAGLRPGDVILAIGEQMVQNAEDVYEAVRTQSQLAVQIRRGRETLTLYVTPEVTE

pKd | Binder
below the threshold | B1

Each binder was assayed against IL16_4, Q14005 (assay: holdup assay). Conditions: plain residues with an end cap or a label only (N-terminal biotin on a linker: ado-ado).
Design: key: below the threshold = too weak to quantify, mostly under pKd 3.1 to 4

Sequence of IL16_4, Q14005 (Q14005 1229-1329): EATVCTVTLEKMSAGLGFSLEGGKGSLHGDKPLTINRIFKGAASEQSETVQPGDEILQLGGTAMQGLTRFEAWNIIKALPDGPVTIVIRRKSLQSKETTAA

pKd | Binder
3.55 | B1

Each binder was assayed against LNX1_3, Q8TBB1 (assay: holdup assay). Conditions: plain residues with an end cap or a label only (N-terminal biotin on a linker: ado-ado).
Design: key: below the threshold = too weak to quantify, mostly under pKd 3.1 to 4

Sequence of LNX1_3, Q8TBB1 (Q8TBB1 500-596): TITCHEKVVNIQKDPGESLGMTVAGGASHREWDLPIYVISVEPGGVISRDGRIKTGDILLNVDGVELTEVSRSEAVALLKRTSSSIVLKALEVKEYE

pKd | Binder
below the threshold | B1

Each binder was assayed against T6, PDZD2_2, O15018 (assay: holdup assay). Conditions: plain residues with an end cap or a label only (N-terminal biotin on a linker: ado-ado).
Design: key: below the threshold = too weak to quantify, mostly under pKd 3.1 to 4

pKd | Binder
below the threshold | B1

What follows are binders tested against T7, CARD11, Q9BXL7 (assay: holdup assay). Conditions: plain residues with an end cap or a label only (N-terminal biotin on a linker: ado-ado).
Design: key: below the threshold = too weak to quantify, mostly under pKd 3.1 to 4

pKd | Binder
below the threshold | B1

The binders below were run against DLG5_1, Q8TDM6 (assay: holdup assay). Conditions: plain residues with an end cap or a label only (N-terminal biotin on a linker: ado-ado).
Design: key: below the threshold = too weak to quantify, mostly under pKd 3.1 to 4

Sequence of DLG5_1, Q8TDM6 (Q8TDM6 617-713): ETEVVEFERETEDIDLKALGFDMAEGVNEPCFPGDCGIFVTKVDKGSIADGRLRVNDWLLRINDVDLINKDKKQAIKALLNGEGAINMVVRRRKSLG

pKd | Binder
below the threshold | B1

Each binder was assayed against Inadl_3, Q8NI35 (assay: holdup assay). Conditions: plain residues with an end cap or a label only (N-terminal biotin on a linker: ado-ado).
Design: key: below the threshold = too weak to quantify, mostly under pKd 3.1 to 4

Sequence of Inadl_3, Q8NI35 (Q8NI35 359-469): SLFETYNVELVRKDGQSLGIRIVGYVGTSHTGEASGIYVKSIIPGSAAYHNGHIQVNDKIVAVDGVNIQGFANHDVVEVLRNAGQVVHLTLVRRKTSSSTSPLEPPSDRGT

pKd | Binder
below the threshold | B1

These binders were tested against T8, APBA1_2, Q02410 (assay: holdup assay). Conditions: plain residues with an end cap or a label only (N-terminal biotin on a linker: ado-ado).
Design: key: below the threshold = too weak to quantify, mostly under pKd 3.1 to 4

pKd | Binder
below the threshold | B1

These binders were tested against GRIP2_6, Q9C0E4 (assay: holdup assay). Conditions: plain residues with an end cap or a label only (N-terminal biotin on a linker: ado-ado).
Design: key: below the threshold = too weak to quantify, mostly under pKd 3.1 to 4

Sequence of GRIP2_6, Q9C0E4 (Q9C0E4 648-740): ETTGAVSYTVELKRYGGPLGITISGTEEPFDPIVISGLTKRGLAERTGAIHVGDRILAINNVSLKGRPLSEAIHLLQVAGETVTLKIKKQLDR

pKd | Binder
below the threshold | B1

Each binder was assayed against T9, RAPGEF6, Q8TEU7 (assay: holdup assay). Conditions: plain residues with an end cap or a label only (N-terminal biotin on a linker: ado-ado).
Design: key: below the threshold = too weak to quantify, mostly under pKd 3.1 to 4

pKd | Binder
below the threshold | B1

Each binder was assayed against MAGI1_1, Q96QZ7 (assay: holdup assay). Conditions: plain residues with an end cap or a label only (N-terminal biotin on a linker: ado-ado).
Design: key: below the threshold = too weak to quantify, mostly under pKd 3.1 to 4

Sequence of MAGI1_1, Q96QZ7 (Q96QZ7 1-106): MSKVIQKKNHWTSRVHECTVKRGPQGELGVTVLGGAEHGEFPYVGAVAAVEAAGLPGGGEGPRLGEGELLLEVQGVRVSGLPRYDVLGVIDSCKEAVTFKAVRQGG

pKd | Binder
below the threshold | B1

Source: article PMC9482650, “Quantitative fragmentomics allow affinity mapping of interactomes” (Nature Communications, 2022)
